Experimental findings from patent US20160137709A1 (AMRYT PHARMACEUTICALS, published 2016) are described below.

Positions count from the first letter of the chain named.

Sequences and labels used below:
T1: chimeric Hu-Leptin/Mu-EPO receptor (human; mouse, UniProt P48357 22-839; P14753 250-507)
T1 sequence (looked up): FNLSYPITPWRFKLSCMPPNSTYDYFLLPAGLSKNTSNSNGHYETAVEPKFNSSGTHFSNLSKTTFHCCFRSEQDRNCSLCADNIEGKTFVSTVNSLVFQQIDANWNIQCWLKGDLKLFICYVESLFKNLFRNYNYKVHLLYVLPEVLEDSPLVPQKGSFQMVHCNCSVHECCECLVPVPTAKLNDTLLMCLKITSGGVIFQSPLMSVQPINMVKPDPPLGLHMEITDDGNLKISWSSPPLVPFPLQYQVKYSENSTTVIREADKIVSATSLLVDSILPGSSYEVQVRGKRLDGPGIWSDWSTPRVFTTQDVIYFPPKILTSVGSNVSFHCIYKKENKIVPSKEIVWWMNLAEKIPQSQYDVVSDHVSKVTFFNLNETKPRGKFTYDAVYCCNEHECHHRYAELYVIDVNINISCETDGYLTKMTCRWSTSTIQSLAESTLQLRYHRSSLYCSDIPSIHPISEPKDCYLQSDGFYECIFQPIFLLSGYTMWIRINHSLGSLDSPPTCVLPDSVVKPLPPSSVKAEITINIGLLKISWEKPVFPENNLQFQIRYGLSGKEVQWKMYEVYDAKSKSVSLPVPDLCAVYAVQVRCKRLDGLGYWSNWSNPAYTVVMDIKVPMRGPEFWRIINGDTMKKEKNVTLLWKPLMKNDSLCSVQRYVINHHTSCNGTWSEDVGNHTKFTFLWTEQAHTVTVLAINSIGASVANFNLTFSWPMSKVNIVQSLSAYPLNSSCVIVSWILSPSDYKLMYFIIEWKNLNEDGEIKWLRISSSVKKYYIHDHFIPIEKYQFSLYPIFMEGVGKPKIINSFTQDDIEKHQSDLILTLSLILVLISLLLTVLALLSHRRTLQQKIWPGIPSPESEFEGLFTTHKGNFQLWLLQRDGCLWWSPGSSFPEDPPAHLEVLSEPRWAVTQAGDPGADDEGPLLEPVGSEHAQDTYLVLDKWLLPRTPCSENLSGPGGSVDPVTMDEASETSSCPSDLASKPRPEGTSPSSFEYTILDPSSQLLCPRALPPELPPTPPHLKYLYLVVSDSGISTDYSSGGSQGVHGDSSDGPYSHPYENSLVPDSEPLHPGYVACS

B1: Compound 2 (SEQ ID NO: 54) (other)
chain: MLAEAKVLANRELDKYGVSDFYKRLINKAKTVEGVEALKLHILAALPTGGGGSGGGSGGGSGGGSASVPIQKVQDDTKTLIKTIVTRINDISHTQSVSSKQKVTGLEFIPGLHPILTLSKMDQTLAVYQQILTSMPSRNVIQISNDLENLRDLLHVLAFSKSCHLPQASGLETLESLGGVLEASGYSTEVVALSRLQGSLQDMLQQLDLSPGC
notes: also called Cmpd 2; ABD1-A500
B2: Compound 15 (SEQ ID NO: 61) (other)
chain: MLAEAKVLANRELDKYGVSDFYKRLINKAKTVEGVEALKLHILAALPTGGGGSGGGSGGGSGGGSASPIQRVQDDTKTLIKTIITRINDISPPQGVSSRPRVAGLDFIPRVQSVRTLSGMDQILATYQQILTSLQSRNVIQISNDLENLRDLLHVLAFSKSCPVPRARGSDTIKGLGNVLRASVHSTEVVALSRLKAALQDMLRQLDRNPGC
notes: also called Cmpd 15; ABD1-HuSeal
B3: Cmpd 1 (SEQ ID NO: 53) (other)
chain: MLAEAKVLANRELDKYGVSDFYKRLINKAKTVEGVEALKLHILAALPTGGGGASVPIQKVQDDTKTLIKTIVTRINDISHTQSVSSKQKVTGLEFIPGLHPILTLSKMDQTLAVYQQILTSMPSRNVIQISNDLENLRDLLHVLAFSKSCHLPQASGLETLESLGGVLEASGYSTEVVALSRLQGSLQDMLQQLDLSPGC
B4: Cmpd 9 (SEQ ID NO: 57) (other)
chain: MLAEAKVLANRELDKYGVSDFYKRLINKAKTVEGVEALKLHILAALPTGGGGSGGGSGGGSGGGSASISIEKIQADTKTLTKTIITRIIQLSTQNGVSTDQRVSGLDFIPGNQQFQNLADMDQTLAVYQQILSSLPMPDRTQISNDLENLRSLFALLATLKNCPFTRSDGLDTMEIWGGIVEESLYSTEVVTLDRLRKSLKNIEKQLDHIQGC
B5: Cmpd 18 (SEQ ID NO: 64) (other)
chain: B1 chain with F21Y, R24N, L25I, K28R, E36R
B6: Cmpd 16 (SEQ ID NO: 62) (other)
chain: MLAEAKVLANRELDKYGVSDFYKRLINKAKTVEGVEALKLHILAALPTGPIQRVQDDTKTLIKTIITRINDISPPQGVCSPRVAGLDFIPRVQSVRTLSGMDQILATYQQILTSLQSRNVIQISNDLENLRDLLHVLAFSKSCPVPRARGSDTIKGLGNVLRASVHSTEVVALSRLKAALQDMLRQLDRNPGC
B7: Cmpd 3 (SEQ ID NO: 55) (other)
chain: MVPIQKVQDDTKTLIKTIVTRINDISHTQSVSSKQKVTGLEFIPGLHPILTLSKMDQTLAVYQQILTSMPSRNVIQISNDLENLRDLLHVLAFSKSCHLPQASGLETLESLGGVLEASGYSTEVVALSRLQGSLQDMLQQLDLSPGCTGGGGSASLAEAKVLANRELDKYGVSDFYKRLINKAKTVEGVEALKLHILAALP
B8: Cmpd 4 (SEQ ID NO: 56) (other)
chain: MVPIQKVQDDTKTLIKTIVTRINDISHTQSVSSKQKVTGLEFIPGLHPILTLSKMDQTLAVYQQILTSMPSRNVIQISNDLENLRDLLHVLAFSKSCHLPQASGLETLESLGGVLEASGYSTEVVALSRLQGSLQDMLQQLDLSPGCTGGGGSGGGSGGGSGGGSASLAEAKVLANRELDKYGVSDFYKRLINKAKTVEGVEALKLHILAALP
B9: Cmpd 14 (SEQ ID NO: 60) (other)
chain: B2 chain with S97C

T2 sequence (P02770 25-608 limits assumed): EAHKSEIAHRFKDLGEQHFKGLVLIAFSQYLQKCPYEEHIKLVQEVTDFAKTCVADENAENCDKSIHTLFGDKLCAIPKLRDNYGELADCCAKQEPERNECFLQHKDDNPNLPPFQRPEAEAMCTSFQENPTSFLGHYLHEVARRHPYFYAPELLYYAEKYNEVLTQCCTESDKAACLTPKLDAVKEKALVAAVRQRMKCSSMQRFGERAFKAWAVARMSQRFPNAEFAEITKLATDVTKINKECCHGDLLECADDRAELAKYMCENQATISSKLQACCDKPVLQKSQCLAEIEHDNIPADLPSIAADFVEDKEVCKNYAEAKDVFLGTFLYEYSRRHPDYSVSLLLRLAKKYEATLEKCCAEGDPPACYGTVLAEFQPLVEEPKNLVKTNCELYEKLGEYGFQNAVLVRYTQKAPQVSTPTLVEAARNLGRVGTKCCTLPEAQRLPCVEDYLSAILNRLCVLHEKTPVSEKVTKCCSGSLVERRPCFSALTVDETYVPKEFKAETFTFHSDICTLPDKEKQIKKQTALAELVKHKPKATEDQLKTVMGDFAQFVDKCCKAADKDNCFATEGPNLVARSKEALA
T4 sequence (P49822 25-608 limits assumed): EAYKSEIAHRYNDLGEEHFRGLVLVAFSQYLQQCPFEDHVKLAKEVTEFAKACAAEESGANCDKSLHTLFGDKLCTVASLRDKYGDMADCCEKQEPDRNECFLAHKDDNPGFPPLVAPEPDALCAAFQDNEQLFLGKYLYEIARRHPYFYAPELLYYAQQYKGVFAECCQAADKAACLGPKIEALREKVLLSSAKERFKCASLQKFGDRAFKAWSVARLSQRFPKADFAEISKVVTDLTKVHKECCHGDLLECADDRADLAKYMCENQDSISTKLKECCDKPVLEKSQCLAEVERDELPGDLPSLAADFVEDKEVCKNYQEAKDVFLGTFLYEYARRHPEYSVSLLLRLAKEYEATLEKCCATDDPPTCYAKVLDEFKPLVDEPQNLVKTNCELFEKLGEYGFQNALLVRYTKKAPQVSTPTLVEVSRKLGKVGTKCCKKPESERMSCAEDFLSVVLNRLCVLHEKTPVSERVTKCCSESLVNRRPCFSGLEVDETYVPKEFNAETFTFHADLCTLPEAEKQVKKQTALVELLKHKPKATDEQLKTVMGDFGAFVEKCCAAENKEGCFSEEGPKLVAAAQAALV

The first test concerns the target T2, Rat serum albumin (rat, UniProt P02770 25-608).
T2 construct: Amine-coupled to the GLC sensor chip; also called Rat SA; RSA
Description: SPR (BioRad ProteOn XPR36), albumin amine-coupled on GLC chip, polypeptide as analyte, 25 C.
Description: (§1) All studies were conducted on a BioRad ProteOn XPR36 system using a GLC sensor chip at 25 degrees C. For amine coupling the GLC chip was activated for 5 minutes using a 1:1 mixture of sulfo-NHS/EDC diluted 30-fold from the initial stock in water as shown below. Each albumin sample was diluted to 25 ug/ml in 10 mM Na Acetate pH 5.0 and injected for 5 minutes over separate sensor surfaces. Each surface was then blocked with 1 M ethanolamine pH 8.5. Each albumin was coupled at a density of 2000-5000 in resonance units.
(§2) The binding of an engineered polypeptide was tested using 5 nM as the highest concentration in a three-fold dilution series. The running buffer contained 10 mM HEPES pH 7.4, 150 mM NaCl, 3 mM EDTA and 0.005% tween-20. All samples were tested using a 3-fold dilution series. Each concentration series was tested in duplicate. The dissociation phase for the highest concentration was monitored for 3 hours.
A word on the Kd: it is a measure of binding affinity in units of concentration. For the molecule B1, the Kd came out at 0.033 nM.
In turn, B2 came in with a Kd below 0.002 nM.

For another test, the target named is T3, Human serum albumin (human, UniProt P02768 25-609).
T3 construct: Amine-coupled to the GLC sensor chip; also called Human SA; HSA
T3 sequence (P02768 25-609 limits assumed): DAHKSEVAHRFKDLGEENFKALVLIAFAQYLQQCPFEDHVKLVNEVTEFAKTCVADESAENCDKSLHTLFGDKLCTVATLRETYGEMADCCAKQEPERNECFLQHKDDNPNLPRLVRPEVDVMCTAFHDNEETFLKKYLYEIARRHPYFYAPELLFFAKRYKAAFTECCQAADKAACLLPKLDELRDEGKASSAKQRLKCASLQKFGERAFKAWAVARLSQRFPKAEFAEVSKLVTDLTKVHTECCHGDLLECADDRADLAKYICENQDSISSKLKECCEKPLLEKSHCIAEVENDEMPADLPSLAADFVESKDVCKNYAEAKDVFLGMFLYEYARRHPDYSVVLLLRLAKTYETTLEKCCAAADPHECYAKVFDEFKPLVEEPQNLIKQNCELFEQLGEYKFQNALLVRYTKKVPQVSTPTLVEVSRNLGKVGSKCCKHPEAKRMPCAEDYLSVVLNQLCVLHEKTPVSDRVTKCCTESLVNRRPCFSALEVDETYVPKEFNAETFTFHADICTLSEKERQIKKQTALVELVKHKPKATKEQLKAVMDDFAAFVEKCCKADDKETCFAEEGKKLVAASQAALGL
The test is described as above.
Description: as §1, §2
In turn, B1 showed a Kd of 0.056 nM.
As to B2, the Kd turned out to be 0.012 nM.

A further test concerns the target T4, Dog serum albumin (dog, UniProt P49822 25-608).
T4 construct: Amine-coupled to the GLC sensor chip; also called Dog SA
Described as above.
Description: as §1, §2
Take B1: the Kd came out at 0.358 nM.
The same measure, in the same setting: the figure for B2 is 0.04 nM.

The target of the next test is T5, Mouse serum albumin (mouse, UniProt P07724 25-608).
T5 construct: Amine-coupled to the GLC sensor chip; also called Mouse SA
The description is as above.
Description: as §1, §2
B1 returned a Kd of 1.97 nM.
The molecule B2 showed a Kd of 0.277 nM.

The target of the next test is T6, Monkey serum albumin (monkey).
T6 construct: Amine-coupled to the GLC sensor chip; also called Monkey SA
T6 sequence (A2V9Z4 25-608): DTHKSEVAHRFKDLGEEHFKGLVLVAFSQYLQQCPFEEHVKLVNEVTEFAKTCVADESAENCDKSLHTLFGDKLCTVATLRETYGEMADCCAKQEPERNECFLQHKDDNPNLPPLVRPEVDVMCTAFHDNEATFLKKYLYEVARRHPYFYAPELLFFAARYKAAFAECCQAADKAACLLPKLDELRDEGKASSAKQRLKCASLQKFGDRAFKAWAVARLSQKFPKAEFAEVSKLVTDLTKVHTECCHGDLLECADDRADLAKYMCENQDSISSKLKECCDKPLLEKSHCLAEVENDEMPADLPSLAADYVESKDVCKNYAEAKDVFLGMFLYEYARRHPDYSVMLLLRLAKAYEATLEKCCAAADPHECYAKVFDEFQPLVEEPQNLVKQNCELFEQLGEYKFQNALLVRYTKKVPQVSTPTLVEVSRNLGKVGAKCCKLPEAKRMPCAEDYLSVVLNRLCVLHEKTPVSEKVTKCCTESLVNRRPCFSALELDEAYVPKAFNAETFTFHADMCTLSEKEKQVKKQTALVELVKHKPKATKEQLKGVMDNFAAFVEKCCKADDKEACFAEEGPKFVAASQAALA
The description is as above.
Description: as §1, §2
In the case of B1, the Kd came out at 0.158 nM.
The molecule B2 yielded an equilibrium dissociation constant (Kd) of 0.017 nM.

Another test concerns the target T1, chimeric Hu-Leptin/Mu-EPO receptor. Description: cell-based or functional assay.
B3: the “EC50 nM (Obeca STAT5 assay)” value worked out at 0.628 nM.
In the case of B4, the “EC50 nM (Obeca STAT5 assay)” value is 0.185 nM.
On to B5, for which the “EC50 nM (Obeca STAT5 assay)” value came out at 0.322 nM.
Regarding B1, the “EC50 nM (Obeca STAT5 assay)” value was found to be 0.53 nM.
Consider B6, for which the “EC50 nM (Obeca STAT5 assay)” value came out at 0.411 nM.
As to B7, the “EC50 nM (Obeca STAT5 assay)” value is 0.095 nM.
In the case of B8, the “EC50 nM (Obeca STAT5 assay)” value amounted to 0.103 nM.
Consider B9, for which the “EC50 nM (Obeca STAT5 assay)” value amounted to 0.406 nM.
As to B2, the “EC50 nM (Obeca STAT5 assay)” value was 0.427 nM.
